In patent publication US20190389958A1 (MSM PROTEIN TECHNOLOGIES, published 2019):

T1: hCCR9 (human, UniProt P51686 1-369)
T1 construct: whole, on cells
T1 sequence (looked up): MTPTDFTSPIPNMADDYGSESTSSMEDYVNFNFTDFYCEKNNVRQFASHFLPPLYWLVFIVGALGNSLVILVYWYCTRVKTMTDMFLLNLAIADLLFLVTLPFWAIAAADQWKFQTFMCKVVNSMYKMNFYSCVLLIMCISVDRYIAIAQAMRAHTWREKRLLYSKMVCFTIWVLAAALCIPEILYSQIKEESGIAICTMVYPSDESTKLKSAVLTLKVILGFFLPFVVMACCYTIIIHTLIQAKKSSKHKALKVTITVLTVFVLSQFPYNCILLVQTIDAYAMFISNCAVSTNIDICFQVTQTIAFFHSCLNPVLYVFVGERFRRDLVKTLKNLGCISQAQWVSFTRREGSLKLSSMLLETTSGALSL

T2: hCXCR5 (human, UniProt P32302 1-372)
T2 construct: whole, on cells
T2 sequence (looked up): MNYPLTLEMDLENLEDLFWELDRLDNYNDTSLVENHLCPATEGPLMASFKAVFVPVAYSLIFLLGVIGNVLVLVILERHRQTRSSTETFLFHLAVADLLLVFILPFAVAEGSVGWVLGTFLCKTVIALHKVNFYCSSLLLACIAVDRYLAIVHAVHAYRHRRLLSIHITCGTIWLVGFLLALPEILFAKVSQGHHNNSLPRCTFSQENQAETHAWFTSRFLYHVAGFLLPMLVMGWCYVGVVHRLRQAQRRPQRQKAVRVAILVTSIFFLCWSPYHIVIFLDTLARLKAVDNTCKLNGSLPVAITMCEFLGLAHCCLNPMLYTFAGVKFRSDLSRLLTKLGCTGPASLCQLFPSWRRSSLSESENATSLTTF

T3: hCCR4 (human, UniProt P51679 1-360)
T3 construct: whole, on cells
T3 sequence (looked up): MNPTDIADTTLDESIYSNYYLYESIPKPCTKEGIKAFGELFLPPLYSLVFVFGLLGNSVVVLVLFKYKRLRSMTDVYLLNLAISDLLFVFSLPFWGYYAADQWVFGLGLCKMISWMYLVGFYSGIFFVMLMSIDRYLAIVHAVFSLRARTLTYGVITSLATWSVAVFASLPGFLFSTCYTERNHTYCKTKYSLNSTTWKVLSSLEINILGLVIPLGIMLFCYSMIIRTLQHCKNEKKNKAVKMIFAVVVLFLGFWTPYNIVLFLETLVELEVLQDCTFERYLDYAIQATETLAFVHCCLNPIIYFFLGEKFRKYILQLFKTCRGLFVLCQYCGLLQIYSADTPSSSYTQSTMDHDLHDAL

T4: hCCR7 (human, UniProt P32248 25-378)
T4 construct: whole, on cells
T4 sequence (looked up): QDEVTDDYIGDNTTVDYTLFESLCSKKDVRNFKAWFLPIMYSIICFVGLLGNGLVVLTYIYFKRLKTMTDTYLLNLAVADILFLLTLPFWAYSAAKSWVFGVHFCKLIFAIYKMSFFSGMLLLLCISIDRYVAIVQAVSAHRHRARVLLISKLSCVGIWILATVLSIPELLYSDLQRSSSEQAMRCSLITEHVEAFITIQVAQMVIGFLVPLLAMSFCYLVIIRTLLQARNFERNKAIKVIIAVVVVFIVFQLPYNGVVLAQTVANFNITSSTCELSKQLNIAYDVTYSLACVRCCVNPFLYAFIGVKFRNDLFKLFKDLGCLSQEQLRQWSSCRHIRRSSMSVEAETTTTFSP

B1: V62.1-R108H-m47-m38 (antibody, human IgG1, V domains shown)
VH: EVQLLESGGGLVQPGGSLRLSCAASGFTFSSYAMSWVRQAPGKGLEWVSAISGSGGTRYADSVKGRFTISRDNSKNTLYLQMNSLRAEDTAVYYCARQGKTRVYGYHWHGYGSTHALDYWGQGTLVTVSS
VL: EIVLTQSPGTLSLSPGERATLSCRASQSVSSSYLAWYQQKPGQAPRLLIYGASSRATGIPDRFSGSGSGTDFTLTISRLEPEDFAVYYCQQWSSDSVTFGQGTKVEIKR
notes: Tested as an IgG (human IgG1 format); also called V62.1-H-m47-m38; IgG1 62.1-R108H-m47-m38
B2: V62.1-R108H (antibody, human IgG1, V domains shown)
VH: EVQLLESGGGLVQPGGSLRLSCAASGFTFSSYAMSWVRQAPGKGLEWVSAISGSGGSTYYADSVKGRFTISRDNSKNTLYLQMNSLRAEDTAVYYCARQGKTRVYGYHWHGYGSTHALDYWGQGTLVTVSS
VL: EIVLTQSPGTLSLSPGERATLSCRASQSVSSSYLAWYQQKPGQAPRLLIYGASSRATGIPDRFSGSGSGTDFTLTISRLEPEDFAVYYCQQSDYSYPFTFGQGTKVEIKR
notes: Tested as an IgG (human IgG1 format); also called IgG1 V62.1 R108H
B3: V62.1-R108H-m80 (antibody, human IgG1, V domains shown)
VH: EVQLLESGGGLVQPGGSLRLSCAASGFTISPYSITWVRQAPGKGLEWVSQINSYNGKTYYADSVKGRFTISRDNSKNTLYLQMNSLRAEDTAVYYCARQGKTRVYGYHWHGYGSTHALDYWGQGTLVTVSS
VL: B2 VL
notes: Tested as an IgG (human IgG1 format); also called V62.1-H-m80; V62.1-R108H-m80-Wt
B4: V62.1 (antibody, human IgG1, V domains shown)
VH: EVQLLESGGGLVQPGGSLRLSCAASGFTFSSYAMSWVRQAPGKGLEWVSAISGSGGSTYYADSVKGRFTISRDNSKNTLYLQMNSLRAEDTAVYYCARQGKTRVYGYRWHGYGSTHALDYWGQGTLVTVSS
VL: B2 VL
notes: Tested as an IgG (human IgG1 format; DP47 heavy and DPK22 kappa light frameworks) made in CHO-3E7 cells; also called IgG V62.1

These binders were tested against T1, hCCR9 (assay: flow cytometry, IgG 100 nM, cells over-expressing hCCR9).
Method: (§1) Cells over-expressing different GPCRs other than CXCR4 and several lines transfected to over-express CXCR4 (R1610-hCXCR4, Cf2Th-hCXCR4 and CHO-hCXCR4) were compared. Cultures were incubated with a test IgG at 100 nM in FACS buffer for 40 min at 4° C. Thereafter, cells were washed twice, stained with anti-human-Fc antibody-PE conjugate (Jackson Immunoresearch Laboratories Inc., West Grove, Pa.), washed twice in FACS buffer and then transferred to FIX buffer. Fluorescence intensities were measured by GUAVA PCA-96 at 425V (in triplicate).

MFI	Binder
2	B1
3	B2
8	B3
4	B4

The binders below were run against T2, hCXCR5 (assay: flow cytometry, IgG 100 nM, cells over-expressing hCXCR5).
Method: as §1
(§2) The expression of GPCRs other than CXCR4 was confirmed using commercially available antibodies (positive controls). For example, a commercial anti-CXCR1 antibody was used as a positive control for confirming the expression of CXCR1 on the CXCR1-transfected CHO cells.

MFI	Binder
2	B1
3	B2
2	B3
4	B4

The binders below were run against T5, human CXCR4 (human, UniProt P61073 1-352) (assay: flow cytometry, IgG 10 µg/mL, CXCR4-expressing Ramos (RA1) cells).
T5 construct: whole, on cells; also called hCXCR4; LESTR
T5 sequence (P61073 whole entry): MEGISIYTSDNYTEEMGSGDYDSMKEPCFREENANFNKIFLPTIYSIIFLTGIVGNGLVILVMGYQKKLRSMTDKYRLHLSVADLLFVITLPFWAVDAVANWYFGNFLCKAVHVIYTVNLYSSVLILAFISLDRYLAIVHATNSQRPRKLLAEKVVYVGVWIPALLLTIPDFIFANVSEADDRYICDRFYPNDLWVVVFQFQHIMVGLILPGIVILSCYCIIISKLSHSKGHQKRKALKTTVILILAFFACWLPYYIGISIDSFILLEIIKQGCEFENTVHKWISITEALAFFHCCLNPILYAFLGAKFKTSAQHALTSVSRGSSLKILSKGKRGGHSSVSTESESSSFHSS
Method: Binding of test IgGs to CXCR4-expressing human lymphoma cells (Ramos; RA1, ATCC® CRL-1596™) was measured by fluorescent flow cytometry-based assay. Tumor cell staining was conducted as follows: human Fcγ receptors of RA1 cells were saturated by incubation at 4° C. for 30 minutes in PBS containing 2% human serum and 0.5 mM EDTA. Cells were then incubated at 4° C. for one hour with test IgGs or a human isotypic IgG1 kappa control (Coger Sarl, Paris, France) (both antibody types at 10 μg/mL). The cells were washed with PBS and further incubated for one hour at 4° C. with a goat F(ab′)2 fragment anti-human IgG (H+L)-PE (Beckman Coulter). The cells were washed twice with PBS and fixed with 0.5% formaldehyde in PBS for analysis by flow cytometry. The data were acquired using an eleven-color flow cytometer (LSRII, BD Biosciences), and the analyses were performed with the FlowJo flow cytometry analysis software (Tree Star Inc., Ashland, Oreg.). The living cells were selected using the side scatter (SSC) and the forward scatter (FSC); 10,000 events were acquired for each analysis. MFI values were recorded using the PE channel.

MFI	Binder
549	B1
429	B2
440	B3
595	B4

These binders were tested against T3, hCCR4 (assay: flow cytometry, IgG 100 nM, cells over-expressing hCCR4).
Method: as §1, §2

MFI	Binder
2	B1
3	B2
2	B3
3	B4

The binders below were run against T5, human CXCR4 (assay: flow cytometry, IgG 100 nM, Cf2Th-hCXCR4 cells).
Method: as §1

MFI	Binder
2350	B1
861	B2
3870	B3
1270	B4

What follows are binders tested against T4, hCCR7 (assay: flow cytometry, IgG 100 nM, cells over-expressing hCCR7).
Method: as §1, §2

MFI	Binder
2	B1
4	B2
3	B4
